± gives the standard error. This sample holds only a part of the variants without activity.
B1: glmS ribozyme (parent)
chain: AUAAAAGCGCCAGAACUACAGAAAUGUAGUUGACGAGGAGGAGGUUUAUCGAAUUUUCGGCGGAUGCCUCCAAA

Experiments:
Details in all cases: with glucosamine-6-phosphate
glucosamine-6-phosphate [1] = variants of: B1; test: self-cleavage kobs at 640 uM GlcN6P; higher = faster cleavage; RNA array
Outline: (§1)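 Tiles of sequenced MiSeq chips were imaged over ~14 h at 37 °C. On them, barcoded ribozyme variants had been transcribed in situ by E. coli RNA polymerase and were tracked via a hybridised Cy3 probe while glucosamine-6-phosphate (40 μM to 10 mM) in HEPES/KCl/Mg(OAc)2 buffer flowed in. Per-tile medians, normalised to baseline and to non-cleaving reference variants, were fit to one- or two-exponential decays for kobs, and weighted Michaelis–Menten fits gave kcat and KM.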

glucosamine-6-phosphate [2] = variants of: B1; test: self-cleavage kobs at 2500 uM GlcN6P; higher = faster cleavage; RNA array
Outline: as §1

glucosamine-6-phosphate [3] = variants of: B1; test: self-cleavage kobs at 10000 uM GlcN6P; higher = faster cleavage; RNA array
Outline: as §1

Variant	self-cleavage kobs at 640 uM GlcN6P (glucosamine-6-phosphate [1]) [s⁻¹]	self-cleavage kobs at 2500 uM GlcN6P (glucosamine-6-phosphate [2]) [s⁻¹]	self-cleavage kobs at 10000 uM GlcN6P (glucosamine-6-phosphate [3]) [s⁻¹]
U31C U46C	7.34e-05 ± 2.3e-05	0.000204 ± 3.7e-05	0.000295 ± 8e-05
C16G G37A U45A	8.21e-05 ± 2.1e-05	–	–
G29C U54G C70G	7.66e-05 ± 3.1e-05	–	–
A14U U30G U54C	0.000624 ± 0.00011	0.00185 ± 0.00046	–
U31A U65C	6.63e-05 ± 2.8e-05	0.000132 ± 3.7e-05	0.000395 ± 0.0001
G29C A33C C34G G38C A52G	< 1e-05	–	–
A15U G38U A39C G41U U49G C70G C71G	< 1e-05	–	–
C16U A39G G66A	0.00662 ± 0.0015	–	–
U30G U45C C71A	3.43e-05 ± 1.1e-05	8.42e-05 ± 2e-05	–
A15C A36G U55A	< 1e-05	< 1e-05	–
G32C G35A A36U U47G U56G	< 1e-05	< 1e-05	–
U30G A42G G66A C71A	0.00018 ± 5.9e-05	0.000159 ± 4.2e-05	–
G29U U31G U47G C71A	9.8e-05 ± 3.6e-05	–	–
U31C G32A U55A	0.000149 ± 2.6e-05	0.000644 ± 0.00017	–
G29U A33U G44A	< 1e-05	< 1e-05	–
C16A C50G G62A A64U	6.11e-05 ± 2.7e-05	9.04e-05 ± 3.5e-05	–
A14U G40A U56G U57C	< 1e-05	< 1e-05	–
A15C U30A U31G C34G C67G	5.05e-05 ± 2.3e-05	–	–
U30A G37C A53U	< 1e-05	–	< 1e-05
G29A A36C	< 1e-05	< 1e-05	< 1e-05
U30C G38U U57C A64G	< 1e-05	–	–
A15U U30A C68G	9.94e-05 ± 2.9e-05	–	–
G29U G32U G38A C61A C67U	0.000133 ± 3.8e-05	0.00034 ± 9.8e-05	–

Variant	self-cleavage kobs at 640 uM GlcN6P (glucosamine-6-phosphate [1]) [s⁻¹]	self-cleavage kobs at 2500 uM GlcN6P (glucosamine-6-phosphate [2]) [s⁻¹]	self-cleavage kobs at 10000 uM GlcN6P (glucosamine-6-phosphate [3]) [s⁻¹]
U31C G44A U46G G59A C70U	< 1e-05	< 1e-05	–
U30G G37C G41A A48U A53U C68G C70U	< 1e-05	–	–
G26U A42G U55C	0.0103 ± 0.0029	–	–
U30G G35A A39U U55C	< 1e-05	< 1e-05	–
C16U C58U C67U C70U	0.000267 ± 6.7e-05	6.37e-05 ± 2.5e-05	–
G32U C58A C67A	7.59e-05 ± 1.8e-05	0.000241 ± 4.9e-05	–
G29C A48G G60A	< 1e-05	–	–
C16U A39G C58A	9.4e-05 ± 1.7e-05	0.000347 ± 4.1e-05	–
G32U A52U C58U	< 1e-05	< 1e-05	–
C16U G59C U65G	< 1e-05	< 1e-05	–
A14U U30G U69G C71G	0.000132 ± 4.4e-05	0.00026 ± 5.9e-05	–
G32C G37U G38C	< 1e-05	< 1e-05	–
G29A C50U C68A	4.21e-05 ± 1.6e-05	–	–
G32A A48U U65C	< 1e-05	–	–
U30A G38C A39U	< 1e-05	–	–
A15G A48U C50U G60A C68G	0.000775 ± 0.00022	–	–
A14G U31G C50G	0.000132 ± 3.6e-05	–	–
U30G A53G C67U	0.000643 ± 0.00013	0.00132 ± 0.00032	–
A14U G37A A52U G60U	< 1e-05	–	–
G32U A39G C71U	0.000114 ± 3.4e-05	0.00038 ± 0.0001	–
A15C G29U U55A	0.000758 ± 0.0002	–	–
U31G U49G C67A	4.09e-05 ± 1.4e-05	–	–
U17G G63A	< 1e-05	< 1e-05	–

Variant	self-cleavage kobs at 640 uM GlcN6P (glucosamine-6-phosphate [1]) [s⁻¹]	self-cleavage kobs at 2500 uM GlcN6P (glucosamine-6-phosphate [2]) [s⁻¹]	self-cleavage kobs at 10000 uM GlcN6P (glucosamine-6-phosphate [3]) [s⁻¹]
U30C C34A A36G A52U	< 1e-05	< 1e-05	–
G29U U55G G59U C70G	0.00019 ± 4.5e-05	–	–
G29A G44U U54A U57A C61U C68A	< 1e-05	< 1e-05	–
C16A G51U C67G	0.000109 ± 4.2e-05	–	–
A14G G40U C61G	< 1e-05	< 1e-05	–
G29C G51A C67G C68G U69G	5.75e-05 ± 2.7e-05	–	–
G26U G60A C68A	9.37e-05 ± 4.6e-05	–	–
U30A G51C	< 1e-05	–	< 1e-05
G32A C34U G60A	< 1e-05	< 1e-05	–
U31A G32A G59U G62A	< 1e-05	–	–
G32C A33G A42U U45G U57C A64C C71A	< 1e-05	< 1e-05	–
A28C A33U G59U C61U	< 1e-05	–	–
A14U C68G	6.11e-05 ± 1.7e-05	3.41e-05 ± 1.3e-05	–
C16U A42U C58A G59C G60C	< 1e-05	–	–
G29C G40C C58G	< 1e-05	–	–
A14U A15G G60U G66A	< 1e-05	–	–
A15G U56A C61G	< 1e-05	–	–
A14U A15U G35A A39C G40U	< 1e-05	–	–
U31C G43A	< 1e-05	< 1e-05	–
A15G G29A A42C	< 1e-05	–	–
A14G U45G C50G C68G	< 1e-05	–	–
U30C G63U C68G	9.11e-05 ± 1.9e-05	5.6e-05 ± 1.4e-05	–

— the supplement of paper PMC7125110
